Experimental findings from US20020127652A1 (published 2002) are described below.

The assay addresses T1, human FSH receptor (human, UniProt P23945 18-695).
T1 sequence (looked up): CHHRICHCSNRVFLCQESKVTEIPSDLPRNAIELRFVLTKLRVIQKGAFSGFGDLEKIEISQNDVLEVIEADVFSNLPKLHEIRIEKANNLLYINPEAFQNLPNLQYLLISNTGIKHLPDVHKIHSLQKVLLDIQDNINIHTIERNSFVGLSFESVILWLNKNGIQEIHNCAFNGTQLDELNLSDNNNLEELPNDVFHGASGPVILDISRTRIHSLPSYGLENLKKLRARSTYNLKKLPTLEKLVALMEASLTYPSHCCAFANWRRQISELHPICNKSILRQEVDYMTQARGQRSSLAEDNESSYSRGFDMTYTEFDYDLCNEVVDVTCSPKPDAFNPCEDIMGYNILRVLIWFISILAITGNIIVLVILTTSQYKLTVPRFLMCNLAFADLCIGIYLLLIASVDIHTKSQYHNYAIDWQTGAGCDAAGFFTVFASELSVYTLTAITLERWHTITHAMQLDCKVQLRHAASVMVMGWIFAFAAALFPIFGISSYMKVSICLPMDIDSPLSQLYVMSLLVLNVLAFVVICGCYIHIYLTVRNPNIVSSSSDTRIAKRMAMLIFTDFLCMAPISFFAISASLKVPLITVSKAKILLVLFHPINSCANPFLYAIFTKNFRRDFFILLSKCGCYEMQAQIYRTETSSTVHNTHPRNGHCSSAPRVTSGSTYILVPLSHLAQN
The assay can be described thus: cell-based or functional assay.

B1: wildtype human FSH (follicle stimulating hormone), recombinant, produced in CHO K1 cells (ligand)
chain 1: not shown
chain 2: CELTNITIAIEKEECRFCISINTTWCAGYCYTRDLVYKDPARPKIQKTCTFKELVYETVRVPGCAHHADSLYTYPVATQCHCGKCDSDSTDCTVRGLGPSYCSFGEMKE
As to B1, the “luciferase signal of the CHO FSH-R/CRE-luc reporter clone, EC50” value is approximately 0.01 IU/ml.

B2: FSH1208, variant form of FSH containing two N-linked glycosylations at the N-terminus of the alpha subunit (ligand)
chain 1: not shown
chain 2: CELTNITIAIEKEECRFCISINTTWCAGYCYTRDLVYKDPARPKIQKTCTFKELVYETVRVPGCAHHADSLYTYPVATQCHCGKCDSDSTDCTVRGLGPSYCSFGEMKE
modifications: both asparagine residues of the N-terminal extension … are glycosylated
As for B2, the “specific activity (in vitro bioactivity in the FSH luciferase assay per FSH content by ELISA), relative to wildtype FSH” value was ~0.33 fold of the wildtype reference.
